{"source": "the RNAGym collection of RNA variant scans (doi:10.1073/pnas.2313332121)", "parents": {"B1": {"name": "TPR 5TU (parent)", "chain": "GGAUCUUCUCGAUCUAACAAAAAAGACAAAUCUGCCACAAAGCUUGAGAGCAUCUUCGGAUGCAGAGGCGGCAGCCUUCGGUGGCGCGAUAGCGCCAACGUUCUCAACUAUGACACGCAAAACGCGUGCUCCGUUGAAUGGAGUUUAUCAUG"}}, "note": "This sample holds only a part of the variants without activity.", "data": [{"variants_of": "B1", "assay": "polymerase ribozyme fitness, log enrichment relative to wild type (log ratio); higher = more active; in vitro selection for triplet polymerase activity", "summary_of_the_method": "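Each subunit of a heterodimeric triplet polymerase ribozyme was represented by a PCR-built, transcribed mutant library that underwent triplicate single-round in vitro selection with frozen incubation at −7 °C. Extended constructs were recovered by gel excision, streptavidin-bead capture and RT-PCR, and Illumina sequencing of input and output libraries kept genotypes with ≥10 input reads and ≥1 read per output. Fitness is the logarithm of genotype enrichment relative to wild-type enrichment, from inverse-variance-weighted replicate averages, with a logarithm base of 2.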", "values": [{"variant": "GGAUCUUCUCGAUCUAACAAAAAAGACAAAUCUGCCACAAAGCUUGAGGGCAUCUUCGGAUGCAGAGGCGACAGCCUUCGGUGGCGCGAUAGCGCCAACGUUCUCAACUAUGACACGCAAAACGCAUGCUCCGUUGAAUGGAGUUUAUCAUG", "note": "[A49G G71A G126A]", "polymerase ribozyme fitness (log ratio)": "≤ -4.2"}, {"variant": "GGUUCUUCUUGAUCCAACAAAAAAGACAAAUCUGCCACAAAGCUUGAGAGCAUCUUCGGAUGCAGAGGCGGCAGCCUUCGGUGGCGCGAUAGCGCCAACGUUCUCAACUAUGACACGCAAAACGCGUGCUCCGUUGAAUGGAGUUUAUCAUG", "note": "[A3U C10U U15C]", "polymerase ribozyme fitness (log ratio)": -1.19}, {"variant": "GGAUCUUCUCGAUCUAACAAAAAAGACAAUUCUGCCACAAAGCUUAAGAGCAUCAUCGGAUGCAGAGGCGGCAACCUUCGGUGGCGCGAUAGCGCCAACGUUCUCAACUAUGACACGCAAAACGCGUGCUCCGUUGAAUGGAGUAUAUCAUG", "note": "[A30U G46A U55A G74A U145A]", "polymerase ribozyme fitness (log ratio)": "≤ -4.2"}, {"variant": "GGAUCUUCUCGAUCUAACAAAAAAGACAAAUCUGCCACAAAGCUUGAGAGCAUCUUCGGAUGCAGAGACGGCAGCCUUCGGUGGUGCGAUAGCGCCAACGUUCUCAACUGUGACACGCAAAACGCGUGCUCCGUUGAAUGGAGUUUAUCAUG", "note": "[G68A C85U A110G]", "polymerase ribozyme fitness (log ratio)": "≤ -4.2"}, {"variant": "GGAUCUUCUCGAUCUAACAAAAAAGACAAAUCUGCCACAAAGCUUGAGAGCAUCUUCGGAUGCAGAGGCGGCAGGCUUCGGGGGCGUGAUAGCGCCAACGUUCUCAACUAUGACACGCAAAACGCGUGCUGCGAUGAAUGGAGUUUAUCAUG", "note": "[C75G U82G C87U C131G U134A]", "polymerase ribozyme fitness (log ratio)": "≤ -4.2"}, {"variant": "GGAUCUUCUCGAUCUAACAGAAAAGACAAAUCUGCCACAAAGCUUGAGAGCAUCUUCGGAUGCAGAGGCGGCAGCCUUCGGUGGCGCGAUUGCGCCAACGUUCUCAACUAUGACACGCAAAACUCGUGCUCCGUUGAAUGGAGUUUAUCAUG", "note": "[A20G A91U G124U]", "polymerase ribozyme fitness (log ratio)": "≤ -4.2"}, {"variant": "GGAUCUUCUCGAUCUAACAAAAAAGACAAAUCUGCCACAAAGCUUGAGAGCAUCUUCGGAUGCAGAGGCGGCAGCCUUCGGUGGCGCGACAGCUCCAACGUUCUCAACUAUGACACGCAUAACUCGUGCUCCGUUGAAUGGAGUUUAUCAUG", "note": "[U90C G94U A120U G124U]", "polymerase ribozyme fitness (log ratio)": "≤ -4.2"}, {"variant": "GGAUCUUCUCGAUCUAACAAAAAAGACAAAUCUGCUACAAAGCUUGAGAGCAUCUUCGGAAGCAGAGGCGGCAGCCUUCGGUGGCGCGAUAGCGUCAACGUCCUCAACUAUGACACGCAAAACGCGUGCUCCGUUGAAUGGAGUUUAUCAUG", "note": "[C36U U61A C95U U102C]", "polymerase ribozyme fitness (log ratio)": -4}, {"variant": "GGAUCUUCUCGAUCUAACAAAAAAGACAAAUCUGCCACAAGGAUUGAGAGCAUCUUCGCAUGCAGAGGCGGCAGCCUUCGGUGGCGCGAUAGCGCCAACGUUCUCAACUAUGACACGCAAAACGCGUGCUCCGUUGAAUGGAGUUUAUCAUG", "note": "[A41G C43A G59C]", "polymerase ribozyme fitness (log ratio)": "≤ -4.2"}, {"variant": "GGAUAUUCUCGAUUUAACAAAAAAGACAAAUAAGCCACAAAGCUUGUGAGCAUCUUCGGAUGCAGAGGCGGCAGCCUUCGGGGGCGCGAUAUCGCCAACGUUCUCAACUAUGACACGCAAAACGCCUGCUCCGUGGAAUGGAGUUUAUCAUG", "note": "[C5A C14U C32A U33A A47U U82G G92U G126C U135G]", "polymerase ribozyme fitness (log ratio)": "≤ -4.2"}, {"variant": "GGAUCUUCUCGAUCUAACAAAAAAGACAAAUCUGCUACAAAGCUUGAGAGCAUCUUCGGAUGCAGAGGCGGCAGCCUUCGGUGGCGCGAUAGCGCCAACGUUCUCAAUUAUGACACGCAAAACGCGUGCUCCGUUGAAUGGAGUUUAUCAUG", "note": "[C36U C108U]", "polymerase ribozyme fitness (log ratio)": "≤ -4.2"}, {"variant": "GGAUCUUCUCGAUCUAACAAAAAAGACAAAUCUGCCACAAAGCUUGAGAGCAUCUUCGGAUGCAGAGGCGGCAGCCUUCGGGGGCGCGAUAGCGCCAGCGUUCUCAACUAUGACACGCAAAACGCGUGCUCCGUUGAAUGGAGUUUAUCAUG", "note": "[U82G A98G]", "polymerase ribozyme fitness (log ratio)": 0.302}, {"variant": "GGAUCUUCUCUAUCUAACAAAAAAGACAAAUCUGCCACAAAGCUUGAGAGCAUCUUCGGCUGCAGAGGCGGCAGCUUUCGGUGGCGCGAUAGCGCCAACGUUCUCAACUAUGACACGCAAAACGCGUGCUCCGUUGAAUGGAGUUUAUCAUG", "note": "[G11U A60C C76U]", "polymerase ribozyme fitness (log ratio)": -3.53}, {"variant": "GGAUCUUCUCGAUCAAACAAAAAAGACAAAUCUGCCACAAAGCUUGAGAGCAUCUUCGGAUGCAGAGGCGGCAGCCUUCGGUGGCGCGAUGGCGCCAACCUUCUCAACUAUGACACGCAAAACGCGUGCUCCGUUGAAUGGAGUUUAUCAUG", "note": "[U15A A91G G100C]", "polymerase ribozyme fitness (log ratio)": "≤ -4.2"}, {"variant": "GGAUCUUCUCGAUCUAACAAAAAAGACAAAUCUGCCACAAAGCUUGCGAGCGACUUCGGAUGCAGAGGCGGCAGCCUUCGGUGGCACGAUAGCCCCAACGUUCUCAACUAUGACACGCAAAACGCGUGCUCCGUUGAAUGGAGUUUAUCAUG", "note": "[A47C A52G U53A G86A G94C]", "polymerase ribozyme fitness (log ratio)": "≤ -4.2"}, {"variant": "GGAUCUUUUCGAUCUAACAAAAAAGACAAAUCUGCCACAAAGCUUGAGAGAAUCUUCGGUUGCAGAGGCGGCAGCCUUCGGUGGCGUGAUAGCGCCAACGUUCUCAACUAUGACACGCAAAACGCGUGCUCCGUUGAAUGGAGUUUAUCAUG", "note": "[C8U C51A A60U C87U]", "polymerase ribozyme fitness (log ratio)": "≤ -4.2"}, {"variant": "GGAUCUUCUCGAUCUAACAAAAAAGACAAAUCUGCCACAAAGCUUGAGACCAUCUUCGGAUGCAGAGGCGGCAGCCUUCGGUCGCGCGAUAGCACCAACGUUCUCAACUAUGACACGCAAAACGCGUGCUCUGUCGAAUGGUGUUUAUCAUG", "note": "[G50C G83C G94A C132U U135C A142U]", "polymerase ribozyme fitness (log ratio)": "≤ -4.2"}, {"variant": "GGAUCUUCUCGAUCUAACAAAAAAGACAAAUCUGCCACAAAGCUUGAGAGCAUCUUCGGAUGCAGAGACGGCAGCCUUCGGUGGCGCAAUAGCGCCAACGUUCUCAACUAUGACAAGCUAAACGCGUGCUCCGUUGAAUGGAGUUUAUCAUG", "note": "[G68A G88A C116A A119U]", "polymerase ribozyme fitness (log ratio)": -3.78}, {"variant": "GGAUCUUCUCGAUCUAACAAAAAAGACAACUCUGCCACAAAGCUUGAGAGCAUUUUCGGAUGCAGAGGCUGCAGCCUUCGGUGGCGCGAUAGAGCCAACGUUCUCAACUAUGACACGCAUAACGCGUGCACCGUUGAGUGGAGUUUAUCAUG", "note": "[A30C C54U G70U C93A A120U U130A A138G]", "polymerase ribozyme fitness (log ratio)": "≤ -4.2"}]}]}
